In paper PMC3506622:

Tests used:
[1] = molecular target: bcPadR1, PadR-like transcriptional regulator from Bacillus cereus ATCC 14579 (product of gene locus BC4206) (Bacillus cereus ATCC 14579); test: SEC; analytical gel filtration, Superdex 200 PC 3.2/30; 20 mM Tris-HCl pH 8.0, 200 mM NaCl, 1 mM EDTA, 1 mM dithiothreitol; apparent molecular weight against five marker proteins
[2] = molecular target: bcPadR2, PadR-like transcriptional regulator from Bacillus cereus ATCC 10987 (product of gene locus BCE3449) (Bacillus cereus ATCC 10987); test: as above

Row | stoichiometry N [2] | Substance | stoichiometry N [1]
1 | – | bcPadR1, PadR-like transcriptional regulator from Bacillus cereus ATCC 14579 (product of gene locus BC4206) (natural protein) | 2
2 | 2 | bcPadR2, PadR-like transcriptional regulator from Bacillus cereus ATCC 10987 (product of gene locus BCE3449) (natural protein) | –
